Measured values taken from publication PMC4491848.

Target: platelet membrane glycoprotein (GP) Ib on human platelets (human (endogenous in platelets)) (UniProt P07359)
Chain of UniProt P07359 (P07359 17-652, chain 1 of 2): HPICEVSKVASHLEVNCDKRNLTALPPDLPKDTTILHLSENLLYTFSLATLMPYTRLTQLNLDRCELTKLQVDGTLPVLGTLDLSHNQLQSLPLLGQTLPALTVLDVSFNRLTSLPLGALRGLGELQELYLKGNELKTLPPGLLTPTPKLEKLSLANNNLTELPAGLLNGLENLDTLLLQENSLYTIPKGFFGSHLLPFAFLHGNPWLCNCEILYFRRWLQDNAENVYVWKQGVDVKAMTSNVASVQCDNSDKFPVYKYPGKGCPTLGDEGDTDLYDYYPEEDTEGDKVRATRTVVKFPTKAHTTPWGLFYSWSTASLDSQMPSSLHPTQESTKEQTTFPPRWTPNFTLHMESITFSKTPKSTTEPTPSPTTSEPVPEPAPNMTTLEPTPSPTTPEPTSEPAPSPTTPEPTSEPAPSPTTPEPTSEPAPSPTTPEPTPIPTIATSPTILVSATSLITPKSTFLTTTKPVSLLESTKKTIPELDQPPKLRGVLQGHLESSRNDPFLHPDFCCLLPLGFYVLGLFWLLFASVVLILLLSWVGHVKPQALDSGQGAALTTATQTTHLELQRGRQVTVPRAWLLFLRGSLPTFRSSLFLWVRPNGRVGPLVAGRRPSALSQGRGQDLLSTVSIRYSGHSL
Chain of UniProt P07359 (P13224 26-206, chain 2 of 2, further chain): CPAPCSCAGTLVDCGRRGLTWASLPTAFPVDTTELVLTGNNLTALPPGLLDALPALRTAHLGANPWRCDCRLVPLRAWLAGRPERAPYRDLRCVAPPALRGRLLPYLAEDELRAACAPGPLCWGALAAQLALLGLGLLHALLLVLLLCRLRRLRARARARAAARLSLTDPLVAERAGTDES

Substance | ristocetin-induced platelet aggregation rate in human platelet-rich plasma, dose series up to 3 μg/ml; value at the 3 μg/ml dose; the pair said to be blocked is GPIb and vWF [%]
natural Agkisacutacin (complex) | 3.46
recombinant Agkisacutacin (complex) | 5.65
